{
  "source": "paper PMC9879999",
  "about": "“A phosphoinositide hub connects CLE peptide signaling and polar auxin efflux regulation” (Nature Communications, 2023)",
  "binders": {"B1": {"name": "6xHis-MBP-BRX (natural protein, Arabidopsis thaliana, UniProt Q17TI5 1-344, looked up)", "chain": "MFSCIACTKADGGEEVEHGARGGTTPNTKEAVKSLTIQIKDMALKFSGAYKQCKPCTGSSSSPLKKGHRSFPDYDNASEGVPYPFMGGSAGSTPAWDFTNSSHHPAGRLESKFTSIYGNDRESISAQSCDVVLDDDGPKEWMAQVEPGVHITFASLPTGGNDLKRIRFSREMFDKWQAQRWWGENYDKIVELYNVQRFNRQALQTPARSDDQSQRDSTYSKMDSARESKDWTPRHNFRPPGSVPHHFYGGSSNYGPGSYHGGPPMDAARTTTSSRDDPPSMSNASEMQAEWIEEDEPGVYITIRQLSDGTRELRRVRFSRERFGEVHAKTWWEQNRERIQTQYL", "notes": "source: E. coli BL21(DE3) Rosetta pLysS, purified (HisPur cobalt resin); not shown: MBP, N-terminal, kept"}},
  "biological_target": "T1, 6xHis-PBL34 (Arabidopsis thaliana, UniProt Q9LFP7 1-493)",
  "T1 construct": "also called 6x His-tagged PBL34 fusion protein; source: E. coli BL21(DE3)-VR2-pACYC-LamP, purified (HisPur cobalt resin); not shown: 6xHis, N-terminal, kept",
  "T1 sequence (looked up)": "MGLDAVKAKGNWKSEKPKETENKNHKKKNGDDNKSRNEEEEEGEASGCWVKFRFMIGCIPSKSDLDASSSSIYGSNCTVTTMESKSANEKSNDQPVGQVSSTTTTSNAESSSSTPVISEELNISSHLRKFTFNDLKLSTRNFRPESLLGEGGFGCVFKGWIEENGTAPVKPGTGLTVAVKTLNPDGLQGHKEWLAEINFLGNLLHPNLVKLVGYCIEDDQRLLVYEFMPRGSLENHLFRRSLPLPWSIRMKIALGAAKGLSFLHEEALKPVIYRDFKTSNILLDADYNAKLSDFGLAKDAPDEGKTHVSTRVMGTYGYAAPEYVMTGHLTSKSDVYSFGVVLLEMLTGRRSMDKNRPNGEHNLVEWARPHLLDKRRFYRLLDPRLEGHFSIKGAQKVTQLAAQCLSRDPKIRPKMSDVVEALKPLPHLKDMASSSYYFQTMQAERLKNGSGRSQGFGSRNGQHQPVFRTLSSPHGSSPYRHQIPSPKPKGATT",
  "test": "pull-down; in vitro pulldown with amylose beads; MBP fusion protein as bait, 6xHis-PBL34 detected by Western blot",
  "conditions": "both partners purified",
  "data": [
    {"binder": "B1", "values": [
      {"measurement": "binding result", "result": "binds"}
    ]}
  ]
}
